From paper PMC4262410, “Identification of Dipeptidyl-Peptidase (DPP)5 and DPP7 in Porphyromonas endodontalis, Distinct from Those in Porphyromonas gingivalis” (PLoS ONE, 2014)
Residues, ends and D or L forms follow the SMILES beside them. *: point of attachment. AMC = Cc1cc(=O)oc2cc(N*)ccc12

Assays:
PeDPP7 (MER278904) = target: T1, PeDPP7 (MER278904) (Porphyromonas endodontalis, UniProt C3JAQ3); assay: fluorescence of released aminomethylcoumarin, hydrolysis rate; type: biochemical; conditions: 20 µM substrate, 50 mM sodium phosphate pH 7.0, 5 mM EDTA, 37°C
T1 construct: gene dpp7; 70-kDa single band; S46 family

[1] = tested on: Cc1cc(=O)oc2cc(NC(=O)[C@H](C)NC(=O)[C@@H](N)CCCCN)ccc12; assay: purified protein; conditions: 50 mM sodium phosphate pH 7.0, 5 mM EDTA, 0.1 M NaCl, 37°C
Excerpt: (§2) fluorescence of released aminomethylcoumarin, Michaelis-Menten fit on PeDPP5 (MER236725)

[2] = tested on: Cc1cc(=O)oc2cc(NC(=O)[C@H](Cc3ccc(O)cc3)NC(=O)[C@@H](N)CO)ccc12; assay: purified protein; conditions: 50 mM sodium phosphate pH 7.0, 5 mM EDTA, 0.1 M NaCl, 37°C
Excerpt: as §2

[3] = tested on: Cc1cc(=O)oc2cc(NC(=O)[C@H](Cc3ccccc3)NC(=O)CN)ccc12; assay: purified protein; conditions: 50 mM sodium phosphate pH 7.0, 5 mM EDTA, 0.1 M NaCl, 37°C
Excerpt: as §2

[4] = tested on: Cc1cc(=O)oc2cc(NC(=O)[C@H](C)NC(=O)[C@@H](N)CCCCN)ccc12; assay: fluorescence of released aminomethylcoumarin, Michaelis-Menten fit; type: biochemical, Porphyromonas gingivalis; conditions: 50 mM sodium phosphate pH 7.0, 5 mM EDTA, 0.1 M NaCl, 37°C
Excerpt: (§1) fluorescence of released aminomethylcoumarin, Michaelis-Menten fit on PgDPP5

[5] = tested on: Cc1cc(=O)oc2cc(NC(=O)[C@H](Cc3ccc(O)cc3)NC(=O)[C@@H](N)CO)ccc12; assay: as above; type: biochemical, Porphyromonas gingivalis; conditions: 50 mM sodium phosphate pH 7.0, 5 mM EDTA, 0.1 M NaCl, 37°C
Excerpt: as §1

[6] = tested on: Cc1cc(=O)oc2cc(NC(=O)[C@H](Cc3ccccc3)NC(=O)CN)ccc12; assay: as above; type: biochemical, Porphyromonas gingivalis; conditions: 50 mM sodium phosphate pH 7.0, 5 mM EDTA, 0.1 M NaCl, 37°C
Excerpt: as §1

T1 sequence (C3JAQ3 3-710): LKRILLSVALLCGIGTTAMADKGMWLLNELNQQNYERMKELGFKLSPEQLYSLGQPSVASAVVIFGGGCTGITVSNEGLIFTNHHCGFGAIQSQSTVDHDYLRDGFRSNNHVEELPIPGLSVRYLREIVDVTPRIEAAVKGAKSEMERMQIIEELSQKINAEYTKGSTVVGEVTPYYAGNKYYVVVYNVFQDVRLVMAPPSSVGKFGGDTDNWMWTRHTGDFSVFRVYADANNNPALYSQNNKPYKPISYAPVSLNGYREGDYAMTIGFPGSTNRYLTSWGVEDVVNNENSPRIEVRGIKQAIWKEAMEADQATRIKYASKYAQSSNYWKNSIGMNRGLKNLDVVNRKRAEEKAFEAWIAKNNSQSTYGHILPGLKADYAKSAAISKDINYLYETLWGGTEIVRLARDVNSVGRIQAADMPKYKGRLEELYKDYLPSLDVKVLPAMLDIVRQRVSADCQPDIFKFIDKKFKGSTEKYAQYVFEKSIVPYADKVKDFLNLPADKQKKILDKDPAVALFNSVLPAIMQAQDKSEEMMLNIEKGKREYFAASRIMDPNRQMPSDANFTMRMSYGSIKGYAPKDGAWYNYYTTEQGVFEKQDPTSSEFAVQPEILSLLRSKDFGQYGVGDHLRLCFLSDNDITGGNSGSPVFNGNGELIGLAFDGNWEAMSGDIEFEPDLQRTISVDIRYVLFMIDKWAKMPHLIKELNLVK

Cc1cc(=O)oc2cc(NC(=O)[C@H](C)NC(=O)[C@@H](N)CCCCN)ccc12 [Lys-Ala-MCA] (H-Lys-Ala-{AMC})
fluorescence of released aminomethylcoumarin, hydrolysis rate (PeDPP7 (MER278904)): slowly hydrolyzed Leu-Gln-, Lys-Ala-, Leu-Arg-, and Ala-Asn-MCA

PeDPP5 (MER236725) (Porphyromonas endodontalis ATCC 35406)
Km [1]: 110 ± 7 µM | kcat [1]: 21200 ± 932 s⁻¹ | kcat/Km [1]: 1.94e+08 M⁻¹ s⁻¹ | Km [2]: 257 ± 9 µM | kcat [2]: 3470 ± 87 s⁻¹ | kcat/Km [2]: 1.35e+07 M⁻¹ s⁻¹ | Km [3]: 993 ± 176 µM | kcat [3]: 10400 ± 1640 s⁻¹ | kcat/Km [3]: 1.05e+07 M⁻¹ s⁻¹

PgDPP5 (Porphyromonas gingivalis ATCC 33277)
Km [4]: 185 ± 21 µM | kcat [4]: 1950 ± 165 s⁻¹ | kcat/Km [4]: 1.05e+07 M⁻¹ s⁻¹ | Km [5]: 296 ± 31 µM | kcat [5]: 1330 ± 100 s⁻¹ | kcat/Km [5]: 4.49e+06 M⁻¹ s⁻¹ | Km [6]: 396 ± 51 µM | kcat [6]: 5640 ± 403 s⁻¹ | kcat/Km [6]: 1.3e+07 M⁻¹ s⁻¹
